Source: the Human Domainome abundance scans (Beltran et al. 2025)
± gives the uncertainty stated by the source.

B1: Calcium-binding protein 2, residues 155 to 219; numbered along this chain, Q9NPB3 (parent)
chain: RELRDAFREFDTNGDGRISVGELRAALKALLGERLSQREVDEILQDVDLNGDGLVDFEEFVRMMS

Variants of: B1
Experiment: abundance fitness (aPCA) (normalised: wild type 0, dead -1); higher = more abundant; growth selection in yeast, the domain comes from the species named
Details: Homo sapiens

Variant	abundance fitness
RELRDAFREFDTNGDGRISVGELRAALKALLGERLSQREVDEILQDVDLNGDGLVDFEEFVRCMS [M63C]	-0.058 ± 0.11
RELRDAFREFDTNGDGRISVGELRAALKALLGERLSQREVDEILQDVDLNGDGLVDFEEFVRAMS [M63A]	-0.048 ± 0.094
RELRDAFREFDTNGDGRISVGELRAALKALLGERLSQREVDEILQDVDLNGDGLVDFEEFVREMS [M63E]	-0.721 ± 0.46
RELRDAFREFDTNGDGRISVGELRAALKALLGERLSQREVDEILQDVDLNGDGLVDFEEFVRDMS [M63D]	-0.323 ± 0.099
RELRDAFREFDTNGDGRISVGELRAALKALLGERLSQREVDEILQDVDLNGDGLVDFEEFFRMMS [V61F]	-0.134 ± 0.16
RELRDAFREFDTNGDGRISVGELRAALKALLGERLSQREVDEILQDVDLNGDGLVDFEEFQRMMS [V61Q]	-0.051 ± 0.13
RELRDAFREFDTNGDGRISVGELRAALKALLGERLSQREVDEILQDVDLNGDGLVDFEEFRRMMS [V61R]	-0.04 ± 0.057
RELRDAFREFDTNGDGRISVGELRAALKALLGERLSQREVDEILQDVDLNGDGLVDFEEFKRMMS [V61K]	-0.029 ± 0.1
RELRDAFREFDTNGDGRISVGELRAALKALLGERLSQREVDEILQDVDLNGDGLVDFEEFARMMS [V61A]	-0.054 ± 0.077
RELRDAFREFDTNGDGRISVGELRAALKALLGERLSQREVDEILQDVDLNGDGLVDFEEFWRMMS [V61W]	-0.114 ± 0.11
RELRDAFREFDTNGDGRISVGELRAALKALLGERLSQREVDEILQDVDLNGDGLVDFEEFDRMMS [V61D]	0.009 ± 0.17
RELRDAFREFDTNGDGRISVGELRAALKALLGERLSQREVDEILQDVDLNGDGLVDFEEFTRMMS [V61T]	-0.044 ± 0.095
RELRDAFREFDTNGDGRISVGELRAALKALLGERLSQREVDEILQDVDLNGDGLVDFEEFYRMMS [V61Y]	-0.013 ± 0.2
RELRDAFREFDTNGDGRISVGELRAALKALLGERLSQREVDEILQDVDLNGDGLVDFEEFPRMMS [V61P]	-0.445 ± 0.23
RELRDAFREFDTNGDGRISVGELRAALKALLGERLSQREVDEILQDVDLNGDGLVDFEEFIRMMS [V61I]	-0.149 ± 0.17
RELRDAFREFDTNGDGRISVGELRAALKALLGERLSQREVDEILQDVDLNGDGLVDFEEFMRMMS [V61M]	-0.325 ± 0.22
RELRDAFREFDTNGDGRISVGELRAALKALLGERLSQREVDEILQDVDLNGDGLVDFEEFERMMS [V61E]	0.012 ± 0.17
RELRDAFREFDTNGDGRISVGELRAALKALLGERLSQREVDEILQDVDLNGDGLVDFEEFSRMMS [V61S]	0.128 ± 0.076
RELRDAFREFDTNGDGRISVGELRAALKALLGERLSQREVDEILQDVDLNGDGLVDFEEFCRMMS [V61C]	-0.014 ± 0.39
RELRDAFREFDTNGDGRISVGELRAALKALLGERLSQREVDEILQDVDLNGDGLVDFEEFHRMMS [V61H]	0.011 ± 0.13
RELRDAFREFDTNGDGRISVGELRAALKALLGERLSQREVDEILQDVDLNGDGLVDFEEFLRMMS [V61L]	-0.012 ± 0.065

Variant	abundance fitness
RELRDAFREFDTNGDGRISVGELRAALKALLGERLSQREVDEILQDVDLNGDGLVDFEEFGRMMS [V61G]	-0.005 ± 0.067
RELRDAFREFDTNGDGRISVGELRAALKALLGERLSQREVDEILQDVDLNGDGLVDFEEFVNMMS [R62N]	-0.111 ± 0.4
RELRDAFREFDTNGDGRISVGELRAALKALLGERLSQREVDEILQDVDLNGDGLVDFEEFVWMMS [R62W]	-0.102 ± 0.066
RELRDAFREFDTNGDGRISVGELRAALKALLGERLSQREVDEILQDVDLNGDGLVDFEEFVFMMS [R62F]	-0.218 ± 0.17
RELRDAFREFDTNGDGRISVGELRAALKALLGERLSQREVDEILQDVDLNGDGLVDFEEFVTMMS [R62T]	-0.182 ± 0.089
RELRDAFREFDTNGDGRISVGELRAALKALLGERLSQREVDEILQDVDLNGDGLVDFEEFVHMMS [R62H]	-0.233 ± 0.12
RELRDAFREFDTNGDGRISVGELRAALKALLGERLSQREVDEILQDVDLNGDGLVDFEEFVEMMS [R62E]	-0.307 ± 0.14
RELRDAFREFDTNGDGRISVGELRAALKALLGERLSQREVDEILQDVDLNGDGLVDFEEFVVMMS [R62V]	-0.074 ± 0.059
RELRDAFREFDTNGDGRISVGELRAALKALLGERLSQREVDEILQDVDLNGDGLVDFEEFVCMMS [R62C]	-0.124 ± 0.097
RELRDAFREFDTNGDGRISVGELRAALKALLGERLSQREVDEILQDVDLNGDGLVDFEEFVQMMS [R62Q]	-0.145 ± 0.069
RELRDAFREFDTNGDGRISVGELRAALKALLGERLSQREVDEILQDVDLNGDGLVDFEEFVLMMS [R62L]	-0.21 ± 0.075
RELRDAFREFDTNGDGRISVGELRAALKALLGERLSQREVDEILQDVDLNGDGLVDFEEFVSMMS [R62S]	-0.065 ± 0.06
RELRDAFREFDTNGDGRISVGELRAALKALLGERLSQREVDEILQDVDLNGDGLVDFEEFVDMMS [R62D]	0.077 ± 0.21
RELRDAFREFDTNGDGRISVGELRAALKALLGERLSQREVDEILQDVDLNGDGLVDFEEFVYMMS [R62Y]	-0.2 ± 0.26
RELRDAFREFDTNGDGRISVGELRAALKALLGERLSQREVDEILQDVDLNGDGLVDFEEFVGMMS [R62G]	-0.025 ± 0.068
RELRDAFREFDTNGDGRISVGELRAALKALLGERLSQREVDEILQDVDLNGDGLVDFEEFVPMMS [R62P]	-0.37 ± 0.074
RELRDAFREFDTNGDGRISVGELRAALKALLGERLSQREVDEILQDVDLNGDGLVDFQEFVRMMS [E58Q]	-0.102 ± 0.089
RELRDAFREFDTNGDGRISVGELRAALKALLGERLSQREVDEILQDVDLNGDGLVDFTEFVRMMS [E58T]	-0.088 ± 0.078
RELRDAFREFDTNGDGRISVGELRAALKALLGERLSQREVDEILQDVDLNGDGLVDFREFVRMMS [E58R]	-0.117 ± 0.086
RELRDAFREFDTNGDGRISVGELRAALKALLGERLSQREVDEILQDVDLNGDGLVDFVEFVRMMS [E58V]	-0.105 ± 0.085
